From PMC6934455, “Molecular Dynamics model of peptide-protein conjugation: case study of covalent complex between Sos1 peptide and N-terminal SH3 domain from Grb2” (Scientific Reports, 2019)
Where two headings read alike, the source gives them in different places.

Key:
[1] = target: Sos1-X′ peptide (Homo sapiens); test: NMR
[2] = target: Sos1-X′ peptide (Homo sapiens); test: NMR; remark: listed apart in the source

B1: Grb2 N-SH3 2-59, P62993 (protein)
chain: EAIAKYDFKATADDELSFKRGDILKVLNEESDQNWYKAELNGKDGFIPKNYIEMKPHP
Kd [1]: 4.6 µM | Kd [2]: 4.9 µM
